Results on 2 molecules are retold here after patent US20220195008A1 (published 2022).

Test [1] has as its target T1, MAGE-A12 peptide on HLA-C*07:01 (human).
T1 peptide: VRIGHLYIL
The experiment in a line: killing.

The target in test [2] is T2, MAGE-A12 peptide on HLA-C*07:02 (human).
T2 peptide: VRIGHLYIL
The experiment in a line: cytokine release.

In test [3] the target is T1, MAGE-A12 peptide on HLA-C*07:01. Kind of test: cytokine release.

B1: anti-MAGE-A12 TCR 502 (TCR, V domains shown)
Valpha: GENVEQHPSTLSVQEGDSAVIKCTYSDSASNYFPWYKQELGKRPQLIIDIRSNVGEKKDQRIAVTLNKTAKHFSLHITETQPEDSAVYFCAASGATDKLIFGTGTRLQVFP
Vbeta: EADIYQTPRYLVIGTGKKITLECSQTMGHDKMYWYQQDPGMELHLIHYSYGVNSTEKGDLSSESTVSRIRTEHFPLTLESARPSHTSQYLCASSGGHEQYFGPGTRLTVT
With B1, the binding result in test [1] was “recognises”.

B2: anti-MAGE-A12 TCR FM8 (TCR, V domains shown)
Valpha: AQTVTQSQPEMSVQEAETVTLSCTYDTSESDYYLFWYKQPPSRQMILVIRQEAYKQQNATENRFSVNFQKAAKSFSLKISDSQLGDAAMYFCAYRSAQGGSEKLVFGKGTKLTVNP
Vbeta: ETGVTQTPRHLVMGMTNKKSLKCEQHLGHNAMYWYKQSAKKPLELMFVYSLEERVENNSVPSRFSPECPNSSHLFLHLHTLQPEDSALYLCASSQTTYYNEQFFGPGTRLTVL
On to B2, for which the binding result in test [2] is “recognises”; in test [3], “no recognition”.
